Measurements published in patent US20120070434A1.
Like-named read-outs stand apart in the source and are kept apart here.

B1: HC+LC-TPO antibody (antibody)
heavy: QVQLVQSGAEVKKPGASVKVSCKASGYTFTYYAMHWVRQAPGQRPEWMGWINGGDGKTKYAQKFQGRLAITRDTSARTAYMELISLTSEDTAVYYCAKGAEMTVGSWGPGTLVTVSSASTKGPSVFPLAPCSRSTSESTAALGCLVKDYFPEPVTVSWNSGALTSGVHTFPAVLQSSGLYSLSSVVTVPSSNFGTQTYTCNVDHKPSNTKVDKTVERKCCVECPPCPAPPVANPIEGPTLRQWLAARARGGPSVFLFPPKPKDTLMISRTPEVTCVVVDVSQEDPEVQFNWYVDGVEVHNAKTKPREEQFNSTYRVVSVLTVLHQDWLNGKEYKCKVSNKGLPSSIEKTISKAKGQPREPQVYTLPPSQEEMTKNQVSLTCLVKGFYPSDIAVEWESNGQPENNYKTTPPVLDSDGSFFLYSRLTVDKSRWQEGNVFSCSVMHEALHNHYTQKSLSLSLGK
light: DIQMTQSPSSLSASVGDRVTLTCRASQGVRNALVWYQQKPGKAPERLIYAASILQSGVPSRFSGSGSGTEFTLTIGGLQPEDFATYYCLQHNSYPWTFGQGTKVEIKRTVAAPSVFIFPPSDEQLKSGTASVVCLLNNFYPREAKVQWKVDNALQSGNSQESVTEQDSKDSTYSLSSTLTLSKADYEKHKVYACEVTHQGLSSPVTKSFNRGECARSLIEGPTLRQWLAARAPI

Tests used:
[1] = biological target: Recombinant TPO receptor (R&D Systems); test: BLI (Octet), biotinylated TPO receptor on streptavidin probe, second experiment
[2] = biological target: Recombinant TPO receptor (R&D Systems)

Molecule | Kd [1] | Kd [2]
recombinant human thrombopoietin (from UniProt P40225 22-353) (ligand) | 3 nM | 
B1 | 3 nM | 2.32 nM
